The results in this text go back to patent US20040023332A1 (GENEXINE, published 2004).

Positions count from the first letter of the chain named. Names and notes keep the numbering of the source.

Sequences and labels used below:
B1: human IL-12p35 subunit, wild type (ligand, UniProt P29459 23-219, looked up)
chain: RNLPVATPDPGMFPCLHHSQNLLRAVSNMLQKARQTLEFYPCTSEEIDHEDITKDKTSTVEACLPLELTKNESCLNSRETSFITNGSCLASRKTSFMMALCLSSIYEDLKMYQVEFKTMNAKLLMDPKRQIFLDQNMLAVIDELMQALNFNSETVPQKSSLEEPDFYKTKIKLCILLHAFRIRAVTIDRVMSYLNAS
notes: also called hp35
B2: human IL-12p40 mutant hp40-N222L (ligand)
chain: IWELKKDVYVVELDWYPDAPGEMVVLTCDTPEEDGITWTLDQSSEVLGSGKTLTIQVKEFGDAGQYTCHKGGEVLSHSLLLLHKKEDGIWSTDILKDQKEPKNKTFLRCEAKNYSGRFTCWWLTTISTDLTFSVKSSRGSSDPQGVTCGAATLSAERVRGDNKEYEYSVECQEDSACPAAEESLPIEVMVDAVHKLKYELYTSSFFIRDIIKPDPPKNLQLKPLKNSRQVEVSWEYPDTWSTPHSYFSLTFCVQVQGKSKREKKDRVFTDKTSATVICRKNASISVRAQDRYYSSSWSEWASVPCS
notes: NO; 3 already carries N222L; also called Leu-222
B3: human IL-12p40 mutant hp40-N222Q (ligand)
chain: B2 chain with L200Q
notes: NO; 4 already carries N222Q; also called Gln-222

The target in the first test is B3. The test is described as follows: co-transfection of hp40-N222Q plasmid with varied amounts of hp35 DNA, IL-12p70 ELISA. A general note: In an ELISA, binding on a coated surface is turned into a signal by an enzyme label.
For B1, the binding result is “binds”.

In another test the target is human IL-12p40 subunit, wild type (human) (UniProt P29460). As to the kind of experiment: IL-12p70 ELISA of lysates of co-transfected COS-7 cells.
For the molecule “human IL-12p35 mutant hp35-N141Q (from UniProt P29459 23-219) (ligand)”, the IL-12p70 heterodimer in cell lysates (% of wild type) came out at 90%. In the case of “human IL-12p35 double mutant hp35-N127,141Q (from UniProt P29459 23-219) (ligand)”, the IL-12p70 heterodimer in cell lysates (% of wild type) came to 71%. “human IL-12p35 mutant hp35-N127Q (from UniProt P29459 23-219) (ligand)” displayed an IL-12p70 heterodimer in cell lysates (% of wild type) of 72%. The molecule “human IL-12p35 mutant hp35-N251Q (from UniProt P29459 23-219) (ligand)” showed an IL-12p70 heterodimer in cell lysates (% of wild type) of 88%. With B1, the IL-12p70 heterodimer in cell lysates (% of wild type) was 100%.

A further test concerns the target B1. The description is as above. On the procedure:
1.5 μg/Ml of tunicamycin was added in some experiments. After incubation for another 24 hours, supernatants and cell pellets were harvested by centrifugation. Supernatants were used for the SEAP assay and cell pellets were resuspended in 200 μl of lysis solution (Promega). The levels of IL-12p70 and IL-12p40 in both supernatants and cell lysates were measured by ELISA (R&D system). For immunoblotting, 10% or 12% sodium dodecyl-sulfate-polyacrylamide electrophoresis (SDS-PAGE) was conducted with supernatants and cell lysates. The proteins separated from the above experiment was electrotransfered to nylon membrane (Amersham). The proteins absorbed to the membrane were obtained by using biotin-labeled human IL-12 antibody (Amersham), horseradish peroxidase (HRP)-labeled streptavidin (PharMingen) and ECL kit (Amersham). The levels of IL-12p70 or IL-12p40 expression were measured by ELISA and presented relatively to the level of wild type, which is arbitrarily set at 100%.
^aTotal 20 μg of each DNA contruct was used for transfection into COS-7 cells by electroporation. For simultaneous transfection of two DNA constructs, 10 μg of each DNA construct was used. ^bThe levels of human and mouse IL-12p70 or IL-12p40 expression were measured by ELISA and presented relative to the wild-type, which is arbitrarily set at 100%. ^cThe equal amount of p70 in each mutant supernatant was used in the IFN-γ induction assay. The levels of induced IFN-γ were measured by ELISA and presented relative to the level of wild type, which is arbitrarily set at 100%. ^dIL-12p40 indicates the monomeric and homodimeric p40 form of IL-12p40, but not the p40 part of IL-12p70. ^eIL-12p70 indicates the heterodimer which consists of IL-12p35 and IL-12p40. ^fThe plasmid backbone used for independent expression of hIL-12p40, hIL-12p35, and their derivatives is pCIN-neo and is descibed as mock. ^g<1 indicates values below the detectable range of ELISA assay. ^hWhen the equal amount of p70 in each indicated mutant (hp40-N135Q) and wild-type supernatant is used in IFN-γ induction assay, the insufficient hp40 in each mutant supernatant compared to wild-type supernatantwas reconstituted with hp40 supernatant obtained after tranfection with hp40 only ⁱNumbers in ( ) mean each amount (μg) of cotransfected plasmid, pCIN-hp40-N222Q and pCIN-hp35.
“human IL-12p40 mutant hp40-N135Q (from UniProt P29460 23-328) (ligand)”: the IL-12p70 heterodimer in cell lysates (% of wild type) came out at 99%.

In the case of “human IL-12p40 mutant hp40-N125Q (from UniProt P29460 23-328) (ligand)”, the IL-12p70 heterodimer in cell lysates (% of wild type) came to 97%.

Regarding B2, the “IL-12p70 heterodimer in cell lysates (% of wild type)” value worked out at 89%. Regarding B3, the “IL-12p70 heterodimer in cell lysates (% of wild type)” value was found to be 90%.
